Our source for the EC50 values is publication PMC9851377.

This test has as its target CD3 on T lymphocytes (human (endogenous in T lymphocytes from PBMCs)) (UniProt P07766). The test is described as follows: FACS; dimer; binding to T lymphocytes. For orientation: A flow cytometer gives signals particle by particle.
Sequence of UniProt P07766 (P07766 23-207): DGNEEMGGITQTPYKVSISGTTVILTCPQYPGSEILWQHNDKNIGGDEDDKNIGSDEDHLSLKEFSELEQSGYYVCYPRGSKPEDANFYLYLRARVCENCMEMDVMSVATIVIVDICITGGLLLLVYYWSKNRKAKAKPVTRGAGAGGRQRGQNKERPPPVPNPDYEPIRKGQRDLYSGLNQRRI

On to “dimeric γδ_(ECTO)-αCD3 (AJ8 TCR, 3(G4S) linker), purified dimer fraction (from UniProt Q99603)”, for which the EC50 (in general, the midpoint of the concentration-response curve) turned out to be 0.17 mg/L.
